Source: patent US20190351013

Target: HPV16 L2 minor capsid protein (UniProt P03107)
Sequence (P03107 whole entry): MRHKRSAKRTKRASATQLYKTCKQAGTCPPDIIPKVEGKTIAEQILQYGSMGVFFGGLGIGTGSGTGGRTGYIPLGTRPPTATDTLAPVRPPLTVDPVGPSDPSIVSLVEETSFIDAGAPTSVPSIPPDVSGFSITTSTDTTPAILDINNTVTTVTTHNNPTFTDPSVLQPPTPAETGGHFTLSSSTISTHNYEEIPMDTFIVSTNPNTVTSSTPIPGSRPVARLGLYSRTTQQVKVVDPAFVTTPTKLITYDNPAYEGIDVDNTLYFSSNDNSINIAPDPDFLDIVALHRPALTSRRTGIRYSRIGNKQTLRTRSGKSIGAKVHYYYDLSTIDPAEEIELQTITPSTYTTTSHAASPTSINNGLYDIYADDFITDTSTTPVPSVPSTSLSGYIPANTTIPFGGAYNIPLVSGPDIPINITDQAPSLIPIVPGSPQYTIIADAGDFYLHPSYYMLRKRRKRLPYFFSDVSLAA

recombinant His-furin
cleavage of HPV16 L2 by furin, immunoblot with anti-HPV16 polyclonal antibody: furin cleaves the L2 protein in the absence of polyR and FI
